# Test results: patent publication US20190048074A1
# Assays:
# [1] = biological target: full-length human APLNR (human) (UniProt P35414); assay: FACS, 4 µg/mL secondary alone, HEK293/CRE-luc/hAPLNR cells
# [2] = biological target: full length cynomolgus APLNR (cynomolgus monkey (Macaca fascicularis)); assay: FACS, 4 µg/mL secondary alone, HEK293/CRE-luc/MfAPLNR cells
# [3] = biological target: full-length human APLNR (human) (UniProt P35414); assay: FACS, secondary alone, HEK293/CRE-luc/hAPLNR cells
# [4] = biological target: full length cynomolgus APLNR (cynomolgus monkey (Macaca fascicularis)); assay: FACS, secondary alone, HEK293/CRE-luc/MfAPLNR cells
# [5] = biological target: full length cynomolgus APLNR (cynomolgus monkey (Macaca fascicularis)); assay: FACS, 10 µg/mL antibody, HEK293/CRE-luc/MfAPLNR cells
# [6] = biological target: full-length human APLNR (human) (UniProt P35414); assay: FACS, 10 µg/mL antibody, HEK293/CRE-luc/hAPLNR cells
# full-length human APLNR (human), sequence (P35414 whole entry): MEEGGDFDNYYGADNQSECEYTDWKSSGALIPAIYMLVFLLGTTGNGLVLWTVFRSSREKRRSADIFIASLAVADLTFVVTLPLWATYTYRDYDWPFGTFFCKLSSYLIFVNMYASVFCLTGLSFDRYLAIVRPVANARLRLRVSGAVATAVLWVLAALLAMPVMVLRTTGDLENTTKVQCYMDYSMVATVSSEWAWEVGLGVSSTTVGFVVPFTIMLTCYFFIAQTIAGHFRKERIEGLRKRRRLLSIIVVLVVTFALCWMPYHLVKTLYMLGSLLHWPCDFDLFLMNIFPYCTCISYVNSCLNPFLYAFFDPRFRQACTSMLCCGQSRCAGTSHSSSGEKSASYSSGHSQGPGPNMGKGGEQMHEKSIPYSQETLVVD
# full length cynomolgus APLNR (cynomolgus monkey (Macaca fascicularis)), sequence (O97666 whole entry): as the sequence (P35414 whole entry) above, with F101S, L167F, E194D, I290V counted along it
Binding Ratio of Geom. Mean to Unstained Cells [1],Binding Ratio of Geom. Mean to Unstained Cells [2],Binding Ratio of Geom. Mean to Unstained Cells [3],Binding Ratio of Geom. Mean to Unstained Cells [4],Binding Ratio of Geom. Mean to Unstained Cells [5],Binding Ratio of Geom. Mean to Unstained Cells [6],Substance
4 fold,3 fold,,,,,anti-mouse IgG antibody conjugated with Alexa 647
2 fold,2 fold,2 fold,2 fold,,,anti-human IgG antibody conjugated with Alexa 488
,,,,2 fold,2 fold,Isotype Control (Tables 4 and 5) (antibody)
,,,,6 fold,7 fold,mouse IgG (mIgG) control antibody
